Test results as given in the supplement of paper PMC10567573.
± gives the standard deviation.

Test: protein stability index of a GFP-peptide fusion (GPS, HEK-293T) (PSI 1-6); higher = more stable
[1] = treatment: DMSO, c terminus: a fixed tail appended
[2] = treatment: MLN4924 1 uM, 8 h, c terminus: a fixed tail appended
[3] = treatment: DMSO, c terminus: native
[4] = treatment: MLN4924 1 uM, 8 h, c terminus: native
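Note: 24-mer peptide tiles fused after GFP, lentivirally expressed, FACS-sorted into six equal bins by GFP/DsRed ratio, decoded by Illumina sequencing, PSI is the read-weighted mean bin number.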

Row | Sequence | protein stability index [1] | protein stability index [2] | protein stability index [3] | protein stability index [4]
1 | QGDSSQQSLKGHLRNNFQKQLLSN [ZC2HC1C] | 3.31 ± 0.27 | 3.88 ± 0.16 | – | –
2 | IPVAMEHQPPYIIAVLPRYVEIRT [VPS39] | 2.6 ± 0.48 | 2.44 ± 0.46 | – | –
3 | IPAGARDIQIVERKKSADVLALAD [ADAMTSL2] | 4.68 ± 0.32 | 4.86 ± 0.38 | – | –
4 | CTDKENALKLFPVQPCSAVHLLLK [FAM189A2] | 2.58 ± 0.23 | 2.7 ± 0.43 | – | –
5 | SPRTRGSWSQPQPLKAPCLNGDTT [RASAL3] | 3.92 ± 0.11 | 4.03 ± 0.23 | – | –
6 | YRQKKRAEQEALTGECKELEKKNE [ATF4] | 5.47 ± 0.24 | 5.59 ± 0.19 | – | –
7 | CLVCQASFCELHLKPHLEGAAFRD [TRIM29] | 3.68 ± 0.32 | 3.67 ± 0.43 | – | –
8 | KQAEICQLEEKLEIANEDRKHALE [CCDC89] | 5.52 ± 0.28 | 5.49 ± 0.077 | – | –
9 | LVYDVEVKSHLLDYVMTTLLFSDK [TRIP13] | 2.9 ± 0.45 | 2.92 ± 0.47 | – | –
10 | RVWLKRDSGQYWPSIYHTMASPCS [WDFY1] | 2.06 ± 0.27 | 2.16 ± 0.21 | – | –
11 | DYRMELAQAGTPAPTKPHDYRQEQ [SPAG8] | 5.11 ± 0.088 | 5.16 ± 0.14 | – | –
12 | ISRAQYNALTLTFQRAMHDYNQAE [STX11] | 2.21 ± 0.14 | 2.35 ± 0.14 | – | –
13 | DNPPTFSQVSYFTYIPENNARGAS [PCDHGA10] | 3.44 ± 0.46 | 3.49 ± 0.49 | – | –
14 | GIIPYAGIDLAVYETLKNAWLQHY [SLC25A25] | 2.6 ± 0.48 | 2.65 ± 0.67 | – | –
15 | VNLPISFFRKLLDCCQVSAPNRFF [NLN] | – | 2.62 ± 0.6 | – | –
16 | DVLNDAIFDEDHDEMVIVKDIDMF [GCH1] | 3.5 ± 0.15 | 3.62 ± 0.2 | – | –
17 | VRDSDSLAESEFESAAFSQGSRSG [PHTF1] | 5.15 ± 0.26 | 5.13 ± 0.28 | – | –
18 | EMSRGEQDLIEDLKLARKAYHDPM [NET1] | 4.5 ± 0.27 | 4.47 ± 0.33 | – | –
19 | SPLYADPYTPPATSHRRVTDVRGL [PLEKHN1] | 3.76 ± 0.35 | 3.63 ± 0.35 | – | –
20 | SLASASPPLSGRSTPKLTSRSAAQ [PPFIA4] | 4.5 ± 0.31 | 4.6 ± 0.14 | – | –
21 | GTEQSRGLGHGSTSRGGPWVGTGL [CPOX] | 3.27 ± 0.84 | 3.6 ± 0.26 | – | –
22 | MVKIFRLLPTKSLVALKCTCCYFK [FBXO34] | 3.18 ± 0.48 | 2.71 ± 0.69 | – | –
23 | CLRILMGELSNHHDHHDEFCLMP [BEX3] | – | – | 2.58 ± 0.69 | 2.27 ± 0.15

Row | Sequence | protein stability index [1] | protein stability index [2] | protein stability index [3] | protein stability index [4]
24 | AKGASLFTCDLQHTETGEEVLRMC [VPS39] | 3.69 ± 0.055 | 3.73 ± 0.33 | – | –
25 | KLAIIPGGGGTQRLPRAIGMSLAK [AUH] | 2.79 ± 0.05 | 2.88 ± 0.52 | – | –
26 | HQDVDLVCINLPPPLTRQIAVKTL [GFOD1] | 2.47 ± 0.33 | 2.53 ± 0.27 | – | –
27 | MGPAQEAPVAEAWIPQAGPPELNY [ZNF449] | 4.46 ± 0.27 | 4.51 ± 0.17 | – | –
28 | STFIRRYSRYLNEKAFSYRQMAFD [SNAP91] | 2.11 ± 0.24 | 2.22 ± 0.28 | – | –
29 | REVDLNGDGTVDFDEFVMMLSRH [CABP4] | – | – | 4 ± 0.17 | 4.23 ± 0.28
30 | LPYQHFSAHFTSGPLVPRLAGMAN [TBX5] | 2.7 ± 0.27 | 2.56 ± 0.11 | – | –
31 | QRILRIMCRLEELGLAGRCLTLTP [HDAC6] | 2.39 ± 0.44 | 2.34 ± 0.39 | – | –
32 | EQNIIPSATNVTCYYQPAPYVSDG [TENT5C] | 3.43 ± 0.4 | 3.63 ± 0.32 | – | –
33 | CKLILSLEPDEDPLCMLLLIDHLA [TCF25] | 2.82 ± 0.53 | 2.95 ± 0.79 | – | –
34 | QNCTDEGEREAIQKSVTRSCLLEE [POP5] | 5.17 ± 0.3 | 5.3 ± 0.33 | – | –
35 | EIQVDSEEPVFEAVINWVKHAKKE [KLHL12] | 3.57 ± 0.4 | 3.92 ± 0.95 | – | –
36 | GGARSLWRGNGINVLKIAPESAIK [SLC25A25] | 3.29 ± 0.45 | 3.19 ± 0.47 | – | –
37 | AALCLEVTLKTAVDGPDLEMLTGQ [FKBP8] | 2.47 ± 0.38 | 2.49 ± 0.091 | – | –
38 | SIESIKWMIEEKATITSRGSSLSG [LURAP1L] | 3.1 ± 0.2 | 3.39 ± 0.41 | – | –
39 | ADRIIEVDMECQTDAFLDRPPTPL [RSPH3] | 4.3 ± 0.29 | 4.25 ± 0.28 | – | –
40 | PTQKALYNDVMQENYETVISLALF [ZNF75A] | 2.57 ± 0.45 | 2.47 ± 0.37 | – | –
41 | DLFKSFPGPMDWVPRYTGVAPQDQ [ADAMTS4] | 3.19 ± 0.29 | 3.21 ± 0.2 | – | –
42 | NWWIRGILTLTMISLFFLIIYMGS [CDS1] | 2.54 ± 0.16 | 2.55 ± 0.35 | – | –
43 | CSLDKRVILIFHCEFSSERGPRMC [CDC25B] | 2.28 ± 0.63 | 2.54 ± 0.83 | – | –
44 | KSKLTYMCRVDLRGHMPEWYTKSF [DLC1] | 2.68 ± 0.65 | 2.43 ± 0.29 | – | –
45 | SSEEFEDKWFRKIKDHFCPFENQF [C8orf76] | 2.87 ± 0.19 | 2.74 ± 0.5 | – | –
46 | GTDGYMPRELASMSLVLHGNNLLV [KLHDC10] | 2.72 ± 0.68 | 2.35 ± 0.56 | – | –

Row | Sequence | protein stability index [1] | protein stability index [2] | protein stability index [3] | protein stability index [4]
47 | LPTLVPWYFWGETFQNSVFVATFL [SCD] | 3.15 ± 0.076 | 3.09 ± 0.35 | – | –
48 | ARLTYSIVGNQVQGAPASSFVYVN [PCDHGC5] | 2.38 ± 0.39 | 2.19 ± 0.26 | – | –
49 | KQYAMQRPNDDSLAFLDKIKSVKE [IQUB] | 3.64 ± 0.35 | 3.87 ± 0.3 | – | –
50 | ECQLTHSHPACPLEFAYYFRPGHL [ZSWIM9] | 2.57 ± 0.036 | 2.59 ± 0.47 | – | –
51 | AAFVRAQADLLAHLVPEPDRLEEQ [DNAAF3] | 4.05 ± 0.13 | 4.12 ± 0.29 | – | –
52 | LAATQAEKAVANFDRTEWVQIRRL [ZC2HC1C] | 3.45 ± 0.11 | 3.16 ± 0.37 | – | –
53 | TPNSKYVKLNVGGSLHYTTLRTLT [KCTD13] | 2.23 ± 0.15 | 2.02 ± 0.25 | – | –
54 | QRYILYWRKRFTEQPITDFCSVIR [ZNF277] | 1.93 ± 0.23 | 2.24 ± 0.26 | – | –
55 | SVDPIAAFCSSDEELEDSKALLYL [RBBP5] | 3.94 ± 0.26 | 4.08 ± 0.36 | – | –
56 | EPVTLETPAFMFRLDASTSHQNLR [FSD1] | 3.6 ± 0.35 | 3.83 ± 0.2 | – | –
57 | FGGNPRFLSLHRAHLGEEAHKCLE [ZNF263] | 2.47 ± 0.5 | 3.14 ± 0.61 | – | –
58 | GHGSHSFIYYENMLLGVPRLRQLK [PKD2L1] | 2.17 ± 0.12 | 2.27 ± 0.034 | – | –
59 | TAHADEFDCPSELQHTQELFPQWH [STEAP1] | 3.79 ± 0.15 | 3.84 ± 0.07 | – | –
60 | YLSQTDGAGDWREKEAKDLTELVQ [FUT8] | 4.52 ± 0.27 | 4.7 ± 0.29 | – | –
61 | FLTSRTRALLRRFPRMLLVDRLPG [ZSWIM9] | 2.57 ± 0.56 | 2.41 ± 0.39 | – | –
62 | LVPFVGKVHIGYLPNKQVLGLSKL [GCH1] | 2.78 ± 0.19 | 2.06 ± 0.37 | – | –
63 | QVKLYDIEQQQIRNALENIRKEMK [CRYL1] | 3.14 ± 0.65 | 3.47 ± 0.29 | – | –
64 | FLHSLVQFLFIYQLPFCGPNVIDN [OR4A15] | 2.89 ± 0.32 | 3.48 ± 0.26 | – | –
65 | RLVKEGRFVPSNPIGILTTSYCEL [PPTC7] | 2.39 ± 0.21 | 2.12 ± 0.47 | – | –
66 | SSGPARGIAIVSVLVILISIVIFC [KCNA3] | 2.21 ± 0.21 | 2.21 ± 0.28 | – | –
67 | GKTTIILRCLDRDEPSKPTLALEY [DYNC2LI1] | 2.25 ± 0.37 | 2.05 ± 0.29 | – | –
68 | FDETSSATTISTSEDGSYGTDVTR [KMT2E] | 5.34 ± 0.24 | 5.49 ± 0.17 | – | –
69 | ESVVSSAVPAAATRTTSFKGTSPS [KCTD10] | 5.09 ± 0.056 | 5.25 ± 0.21 | – | –

Row | Sequence | protein stability index [1] | protein stability index [2] | protein stability index [3] | protein stability index [4]
70 | ATTIDNSRVILEIDNARLAADDFR [KRT15] | 3.7 ± 0.31 | 3.74 ± 0.3 | – | –
71 | GIRLPNGKLKCDICGIICIGPNVL [IKZF1] | 2.61 ± 0.48 | 2.46 ± 1 | – | –
72 | FKEVKEKFKGWVSYSTSEQAELSY [DLC1] | 3.13 ± 0.27 | 2.87 ± 0.31 | – | –
73 | VGRIIAPLLSGVAQEVSPCGPPSL [MFSD9] | 2.72 ± 0.23 | 2.65 ± 0.29 | – | –
74 | LMELCRLYHRADVEKVLRRWVDEE [EDARADD] | 2.5 ± 0.58 | 2.4 ± 0.33 | – | –
75 | LLAQARDEAQGACLQQKQVVAEAQ [LRRC45] | 4.847 ± 0.003 | 4.9 ± 0.087 | – | –
76 | PGAPGMPPGIPPLMPGVPPLMPGM [ZNF207] | 3.71 ± 0.13 | 3.62 ± 0.24 | – | –
77 | GSLGPVPVLRFDALWQVLARDCFA [TRIM14] | 2.42 ± 0.83 | 2.89 ± 0.43 | – | –
78 | SRARSASSPRGMVRVCDLLLKKKP [ANKRD17] | 3.61 ± 0.39 | 3.51 ± 0.4 | – | –
79 | LYILGNFMQLKCFSSQKLKCLSMF [PNLIPRP1] | 3.67 ± 0.66 | 3.46 ± 0.73 | – | –
80 | NFCEPQDYRPMNHEAFKDELKTFR [CDC25B] | 4.04 ± 0.085 | 4.15 ± 0.25 | – | –
81 | YANGGLNYSYRGYGALSSNLQPPA [NOL4L] | 2.49 ± 0.36 | 2.94 ± 0.35 | – | –
82 | FVWYTPPTFMIAVFLPIVVLIFKS [STEAP1] | 3.33 ± 1.6 | 2.81 ± 1.2 | – | –
83 | DPERRPSAMALVKHSVLLSASRKS [WEE1] | 4.15 ± 0.3 | 4.05 ± 0.36 | – | –
84 | DQQNPTLGETPENSNLEEPLNPKP [ZNF449] | 5.6 ± 0.19 | 5.29 ± 0.23 | – | –
85 | LADSDTLSSAEENEPSQAETAVEG [C18orf25] | 5.55 ± 0.33 | 5.54 ± 0.16 | – | –
86 | VRVCDLLLKKKPPQQQHHKAKRNR [ANKRD17] | 3.33 ± 0.39 | 3.38 ± 0.22 | – | –
87 | LSVTISFRIYKSVIQAVQKSEEGH [RTN3] | 3.26 ± 0.61 | 3 ± 0.42 | – | –
88 | YLGLVRTHINAVVAKIQAKIPGAK [RTN1] | 2.35 ± 0.29 | 2.06 ± 0.54 | – | –
89 | EMMSQALKATFSGFTKEQQRLGIP [ETS1] | 2.35 ± 0.28 | 2.49 ± 0.2 | – | –
